# Data: publication PMC12335366
# B1: CH103 KN antibody (IgG; E75K and D76N in the heavy chain) (antibody, V domains shown)
# V domain 1: QVQLQESGPGVVKSSETLSLTCTVSGGSMGGTYWSWLRLSPGKGLEWIGYIFHTGETNYSPSLKGRVSISVDTSKNQFSLRLRSVTAADTAVYFCASLPRGQLVNAYFRNWGRGSLVSVTA
# V domain 2: SYELTQPPSVSVSPGQTATITCSGASTNVCWYQVKPGQSPEVVIFENYKRPSGIPDRFSGSKSGSTATLTIRGTQAIDEADYYCQVWDSFSTFVFGSGTQVTVL
# Key:
# [1] = molecular target: BG505 DS-SOSIP.664 stabilized soluble HIV-1 Env trimer (HIV-1 (clade A, strain BG505)) (UniProt Q2N0S6); assay: negative stain electron microscopy
# [2] = molecular target: BG505 Env (unmutated), on pseudovirus (HIV-1 (clade A, strain BG505)) (UniProt Q2N0S6)
# [3] = molecular target: CH505 Env, on pseudovirus (HIV-1 (clade C, isolate CH505))
molecule,measurement,setting,value
"CH103 KN Fab (partially UCA-reverted CH103 mutant, E75K and D76N)",stoichiometry N (Fab per trimer),[1],1
mature CH103 Fab,stoichiometry N (Fabs per trimer),[1],2
B1,"neutralisation of BG505 pseudovirus (TZM-bl), decrease against mature CH103",[2],> 3 fold
same,"neutralisation of CH505 pseudovirus (TZM-bl), decrease against mature CH103",[3],> 3 fold
